For 4 molecules, Ki results are on record in patent publication US20180273587A1 (AILERON THERAPEUTICS, published 2018).

Positions of bridges follow the written chain, without caps; N, C: chain ends. Non-standard residues stand in square brackets, D forms with d. R8 = C=CCCCCCC[C@@](C)(N)C(=O)O; S5 = C=CCCC[C@](C)(N)C(=O)O

What all share (assay): Ki table, method not stated
One test deals with T1, MCL-1 (UniProt Q07820 172-327, limits assumed).
T1 construct: also called Myeloid cell leukemia 1

Another test addresses BCL-XL (UniProt Q07817 1-209).
Another test concerns the target BCL-2 (UniProt P10415 1-217, limits assumed).

Chain of BCL-XL (Q07817 1-209): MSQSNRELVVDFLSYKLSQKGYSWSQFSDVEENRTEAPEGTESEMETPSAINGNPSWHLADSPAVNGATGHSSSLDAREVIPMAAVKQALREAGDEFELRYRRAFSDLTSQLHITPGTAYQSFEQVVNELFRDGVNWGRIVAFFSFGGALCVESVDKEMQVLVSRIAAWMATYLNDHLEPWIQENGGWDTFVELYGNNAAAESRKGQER
T1 sequence (Q07820 172-327 limits assumed): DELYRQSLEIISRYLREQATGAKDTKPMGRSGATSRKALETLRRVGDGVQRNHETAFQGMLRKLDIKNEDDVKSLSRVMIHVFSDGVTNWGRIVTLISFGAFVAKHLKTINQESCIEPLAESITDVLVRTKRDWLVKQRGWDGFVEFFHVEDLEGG
Chain of BCL-2 (P10415 1-217 limits assumed): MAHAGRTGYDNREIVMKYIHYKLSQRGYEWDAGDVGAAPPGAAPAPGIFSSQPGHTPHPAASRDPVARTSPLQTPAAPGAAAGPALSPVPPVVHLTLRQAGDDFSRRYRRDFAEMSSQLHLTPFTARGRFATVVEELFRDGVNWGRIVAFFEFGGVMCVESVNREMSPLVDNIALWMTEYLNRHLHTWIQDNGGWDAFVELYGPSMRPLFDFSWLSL

B1: SEQ ID NO: 1654 (peptide)
peptide: Ac-IWIAQALR[R8]IGDAFA[S5]YYA-NH2
modifications: staple 9-16
SMILES: CC[C@H](C)[C@H](NC(C)=O)C(=O)N[C@@H](Cc1c[nH]c2ccccc12)C(=O)N[C@H](C(=O)N[C@@H](C)C(=O)N[C@@H](CCC(N)=O)C(=O)N[C@@H](C)C(=O)N[C@@H](CC(C)C)C(=O)N[C@@H](CCCNC(=N)N)C(=O)N[C@]1(C)CCCCCCC=CCCC[C@@](C)(C(=O)N[C@@H](Cc2ccc(O)cc2)C(=O)N[C@@H](Cc2ccc(O)cc2)C(=O)N[C@@H](C)C(N)=O)NC(=O)[C@H](C)NC(=O)[C@H](Cc2ccccc2)NC(=O)[C@H](C)NC(=O)[C@H](CC(=O)O)NC(=O)CNC(=O)[C@H]([C@@H](C)CC)NC1=O)[C@@H](C)CC
With B1, the Ki with MCL-1 was found to be 7.4 nM; with BCL-XL, 55.7 nM; with BCL-2, 115 nM.

B2: SEQ ID NO: 1661 (peptide)
peptide: Ac-IWIAQALR[R8]IGDAAN[S5]YYA-NH2
modifications: staple 9-16
SMILES: CC[C@H](C)[C@H](NC(C)=O)C(=O)N[C@@H](Cc1c[nH]c2ccccc12)C(=O)N[C@H](C(=O)N[C@@H](C)C(=O)N[C@@H](CCC(N)=O)C(=O)N[C@@H](C)C(=O)N[C@@H](CC(C)C)C(=O)N[C@@H](CCCNC(=N)N)C(=O)N[C@]1(C)CCCCCCC=CCCC[C@@](C)(C(=O)N[C@@H](Cc2ccc(O)cc2)C(=O)N[C@@H](Cc2ccc(O)cc2)C(=O)N[C@@H](C)C(N)=O)NC(=O)[C@H](CC(N)=O)NC(=O)[C@H](C)NC(=O)[C@H](C)NC(=O)[C@H](CC(=O)O)NC(=O)CNC(=O)[C@H]([C@@H](C)CC)NC1=O)[C@@H](C)CC
For B2, the Ki in the test with MCL-1 amounted to 7.5 nM; with BCL-XL, 402 nM; with BCL-2, 140 nM.

B3: SEQ ID NO: 1660 (peptide)
peptide: Ac-IWIAQALQ[R8]IGDQFN[S5]YYA-NH2
modifications: staple 9-16
SMILES: CC[C@H](C)[C@H](NC(C)=O)C(=O)N[C@@H](Cc1c[nH]c2ccccc12)C(=O)N[C@H](C(=O)N[C@@H](C)C(=O)N[C@@H](CCC(N)=O)C(=O)N[C@@H](C)C(=O)N[C@@H](CC(C)C)C(=O)N[C@@H](CCC(N)=O)C(=O)N[C@]1(C)CCCCCCC=CCCC[C@@](C)(C(=O)N[C@@H](Cc2ccc(O)cc2)C(=O)N[C@@H](Cc2ccc(O)cc2)C(=O)N[C@@H](C)C(N)=O)NC(=O)[C@H](CC(N)=O)NC(=O)[C@H](Cc2ccccc2)NC(=O)[C@H](CCC(N)=O)NC(=O)[C@H](CC(=O)O)NC(=O)CNC(=O)[C@H]([C@@H](C)CC)NC1=O)[C@@H](C)CC
As for B3, the Ki in the test with MCL-1 came to 14.8 nM; with BCL-XL it was 6.3 nM; in the test with BCL-2 it was 27.5 nM.

B4: SEQ ID NO: 1659 (peptide)
peptide: Ac-IWIAQALQ[R8]IGDAFN[S5]YYA-NH2
modifications: staple 9-16
SMILES: CC[C@H](C)[C@H](NC(C)=O)C(=O)N[C@@H](Cc1c[nH]c2ccccc12)C(=O)N[C@H](C(=O)N[C@@H](C)C(=O)N[C@@H](CCC(N)=O)C(=O)N[C@@H](C)C(=O)N[C@@H](CC(C)C)C(=O)N[C@@H](CCC(N)=O)C(=O)N[C@]1(C)CCCCCCC=CCCC[C@@](C)(C(=O)N[C@@H](Cc2ccc(O)cc2)C(=O)N[C@@H](Cc2ccc(O)cc2)C(=O)N[C@@H](C)C(N)=O)NC(=O)[C@H](CC(N)=O)NC(=O)[C@H](Cc2ccccc2)NC(=O)[C@H](C)NC(=O)[C@H](CC(=O)O)NC(=O)CNC(=O)[C@H]([C@@H](C)CC)NC1=O)[C@@H](C)CC
In the case of B4, the values for the Ki in the test with MCL-1, in the test with BCL-XL and with BCL-2 were 76.2 nM, 325 nM and 365 nM, respectively.
